Assay: yeast display, Sf9 membrane polyspecificity reagent, FACS + sequencing; frameworks hold sequencing errors
Outline: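 Nanobodies from a synthetic yeast display library (Saccharomyces cerevisiae BJ5465), induced 36–48 hours with galactose, were stained 1 hour at 4 °C with 10% biotinylated, detergent-solubilized Sf9 membrane reagent, enriched on streptavidin microbeads, then FACS-sorted. Anti-HA (expression) and streptavidin (reagent binding) fluorescence set low and high (top ~1%) gates. Polyreactivity labels come from the gate of origin. Genes were colony-PCR amplified, MiSeq 2 × 250 sequenced and filtered by CDR length.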

Row | Sequence | polyreactivity (PSR sort gate)
1 | QVQLVESGGGLVQAGGSLRLSCAASGITFVRYAMGWYRQAPGKERELVAAINFSGGNTYYADSVKGRFTISRDNAKNTVYLQMNSLKPEDTAVYYCAAKRQYKRSRMYYWGQGTQVTVSS | high polyreactivity
2 | QVQLVESGGGLVQAGGSLRLSCAASGITFVYNAMGWYRQAPGKERELVAAIDFGAGSTYYADSVKGRFTISRDNAKNTVYLPMNSLKPEDTAVYYCAAGAARWYWPYDYWGQGTQVTVSS | low polyreactivity
3 | QVQLVESGGGLVQAGGSLRLSCAASGITFWAYAMGWYRPAPGKARELVAAITSGGSTNYADSVKGRFTISRDNAKNTVYLQLNSLKPEDTAVYYCAADWAYYSTALDYWGQGTQVTVSS | low polyreactivity
4 | QVQLVESGGGLVQAGGSLRLSCAASGITFWDYAMGWYRQAPGKERELVAGISTRGGSTYYADSVKGRFTISRDNEKNTVYLQMNSLKPEDTAVYYCATDDPLSQINEQGMDYWGQGTQVTVSS | low polyreactivity
5 | QVQLVESGGGLVQAGGSLRLSCAASGITFWDYAMGWYRQAPGKERELVAGITSRGGSTYYADSVKGRFTISRDNAKNTVYLQMNSLKPADTGVNSCNAYRLHSRRYYYWGQGTQVTVSS | low polyreactivity
6 | QVQLVESGGGLVQAGGSLRLSCAASGITFWGYAMGWYRQAPGKEREFVARINWSGGRTYYAESVKGRFTISRDNAKNTVYLQMNSLKPEDTAVYYCAATSLIYCYRTYYYWGQGTQVTVSS | high polyreactivity
7 | QVQLVESGGGLVQAGGSLRLSCAASGITFWGYAMGWYRQAPGKERELVAAISKTGGSTYYADSVKGRFTISRDNAKNTVYLQMNSLKPEDTAVYYCNTVTANGDFGYWGQGTQVTVSS | low polyreactivity
8 | QVQLVESGGGLVQAGGSLRLSCAASGITFWGYVMGWYRQAPGKERELVAAISSSGGRTYYADSVKGRFTISRDNAKNTVYLQMNSLKPEDTAVYYCAARFLYANRYSVDYDYWGQGTQVTVSS | high polyreactivity
9 | QVQLVESGGGLVQAGGSLRLSCAASGITFWLYAMGWYRQAPGKERELVAAITSGGSTTYADSVKGRFTISRDNAKNTVFLQMYSLKPEDSAVYYCNAEYQDWFGRLDYWGQGTQVTVSS | high polyreactivity
10 | QVQLVESGGGLVQAGGSLRLSCAASGITFWLYAMGWYRQAPGKERELVAGIDNGGSTTYADSVKGRFTISRDNAKNTVYLQMNILKPEDTAVYYCAATFEWDPVYPYNGFIYDYWGQGTQVTVSS | high polyreactivity
11 | QVQLVESGGGLVQAGGSLRLSCAASGITFWRYAMGWYRQAPGKERELVAAINSGGGTKFADSVKGRFTISRDNAKNTVYLQMNSLKPEDTAVYYCAAKYVFTLHRYDYWGQGTQVTVSS | high polyreactivity
12 | QVQLVESGGGLVQAGGSLRLSCAASGITFWRYAMGWYRQAPGKERELVAAIRWSGSTYADSVKGRFTISRDNAKNTVYLQMNSLKPEDTAVYYCAAYPIGGYHDMDYWGQGTQVTVSS | high polyreactivity
13 | QVQLVESGGGLVQAGGSLRLSCAASGITFWYYAMGWYRQAPGKERELVARIRRSGGSTYYADSVKGRFTISRDNAKNTVYLQMNSLKPEDTAVYYCAAEPRWTAVYQGAERFYYWGQGTQVTVSS | high polyreactivity
14 | QVQLVESGGGLVQAGGSLRLSCAASGITFWYYAMGWYRQAPGKERELVAVISRGGSTYYADSVKGRFTISRDNAKNTVYLQMNSLKPEDTAVYYCAADVSVSGYYYWGQGTQVTVSS | high polyreactivity
15 | QVQLVESGGGLVQAGGSLRLSCAASGITFYANAMGWYRQAPGKERELVATISYRGGSTYYADSVKGRFTISRDNAKNTVYLQMNSLKPEDTAVYYCAARRRRTSNTRVEHNYWGQGTQVTVSS | high polyreactivity
16 | QVQLVESGGGLVQAGGSLRLSCAASGITFYANTMGWYRQAPGKERELVAAISGIGGSTYYADSVMGRFAISRDNAKNTVYLQMNSLKPEDTAVYYCNADVYYFLFGTFDYWGQGTQVTVSS | low polyreactivity
17 | QVQLVESGGGLVQAGGSLRLSCAASGITFYAYAMGWYRQAPGKERELVAAITSSGSSTYYADSVKGRFTISRDNAKNTVYLQMISLKPEDSAVYYCAARRYRSVRNDYWGQGTQVTVSS | high polyreactivity
18 | QVQLVESGGGLVQAGGSLRLSCAASGITFYDYAMGWYRQAPGKERELVAAISDSGGITYYADSVKGRFTISRDNAKNTVYLQMNSLKPEDTAVYYCNAKSVRRERYKFDYWGQGTQVTVSS | high polyreactivity
19 | QVQLVESGGGLVQAGGSLRLSCAASGITFYDYAMGWYRQAPGKERELVAAISFSGSRTYYADSVKGRFTISRDHAKNTVSLQMNSLKPDDTAVYYCAASQASNYKIYDYWGQGTQVTVSS | high polyreactivity
20 | QVQLVESGGGLVQAGGSLRLSCAASGITFYDYDMGWYRQAPGKERELVAAINSGASTSYADSVKGRFTISRDNAKNTVYLQMNSLKPEDTAVYYCNADVRVDYLSGDLDYWGQGTQVTVSS | low polyreactivity
21 | QVQLVESGGGLVQAGGSLRLSCAASGITFYDYPMGWYRQAPGKERELVAAITSSGGRTYYADSVKGRFTISRDNAKNTVYLQMNSLKPEDTAVYYCAASTYPHEYDYWGQGTQVTVSS | low polyreactivity
22 | QVQLVESGGGLVQAGGSLRLSCAASGITFYEYAMGWYRQAPGKEREFVAAIDDGDSSTYYADSVKGRFTISRDNAKNTVYLQMNSLKPEDTAVYYCNADPYYDYSLNWGDYWGQGTQVTVSS | low polyreactivity

Row | Sequence | polyreactivity (PSR sort gate)
23 | QVQLVESGGGLVQAGGSLRLSCAASGITFYFNAMGWYRQAPGKERELVAAITFSGSSTYYADSVKGRFTISRDNAKNTVYLQMNSQKPEDSAVYYCAAYLTRYDFRWHTYYYWGLGTQVTVSS | low polyreactivity
24 | QVQLVESGGGLVQAGGSLRLSCAASGITFYFNAMGWYRQAPGKERELVAANTSGGGSTYYADSVKGRFTISRDNAKNTVYLQRNSLKPEDTAVYYCAAEWSYGGMDYWGQGTQVTVSS | low polyreactivity
25 | QVQLVESGGGLVQAGGSLRLSCAASGITFYGNAMGWYRQAPGKERELVAAIRRGGSTNYADSVKGRFTISRDNAKNTVYLQMNSLKPEDTALYYCAADRYGYTYRNYRVGYWGQGTQVTVSS | high polyreactivity
26 | QVQLVESGGGLVQAGGSLRLSCAASGITFYGNAMGWYRQAPGKERELVAGISSGGSTSYADSVKGRFTISRDNAKNTVYLQMDSLKPEDTAVYYCAKRWYYGTRYGTSYIRDYWGQGTQVTVSS | high polyreactivity
27 | QVQLVESGGGLVQAGGSLRLSCAASGITFYGYAMGWYRQAPGKERELVAAITSGGSTNYADSVKGRFTISRDNAKNTVYLQMNSLKPEDTAVYYCAADLWAYGYYYVGYDYWGQGTQVTVSS | low polyreactivity
28 | QVQLVESGGGLVQAGGSLRLSCAASGITFYGYAMGWYRQAPGKERELVAVITPSGSSTYYADSVKGRFTISRDNAKNTVYLQMNSLIPEDTAVYYCNARPGRRSLRSRTYDYWGQGTQVTVSS | high polyreactivity
29 | QVQLVESGGGLVQAGGSLRLSCAASGITFYGYTMGWYRQAPGKERELVAAITSGGNTYYADSVKGRFTISRDNAKNPVYLQMNCLKPEDTAVYYCAARRYCYTSITWCDYWRQGTQVTVSS | high polyreactivity
30 | QVQLVESGGGLVQAGGSLRLSCAASGITFYHYAMGWYRQAPGKERELVAAISSDDNTNYADSVKGRFTISRDNAKNTVYLQMNSLKPEDTAVYYCAAAPWYFYDQYFNAISFGYYYWGQGTQVTVSS | high polyreactivity
31 | QVQLVESGGGLVQAGGSLRLSCAASGITFYIYAMGWYRQAPGKERELVAAISDDGSTHYADSVKGRFTISRDNAKNTVYLQMNSLTPEDTAVYYCNADDDWFFDFFDYDYWGQGTQVTVSS | low polyreactivity
32 | QVQLVESGGGLVQAGGSLRLSCAASGITFYKYAKGWYRQAPGKERELVAAISRSGTTTYYADSVKGRFTISRDNAKNTVYLQMNSLKPEDTAVYYCNTVNWLTLNDRYYYWGQGTQVTVSS | high polyreactivity
33 | QVQLVESGGGLVQAGGSLRLSCAASGITFYKYVMGWYRQAPGKERELVAAITYSGGSTYYADSVKGRFTISRDYAKNTVYLQMYSLKPEDTAVYYCAKRRPALRWIYYYWGQGTQVTVSS | high polyreactivity
34 | QVQLVESGGGLVQAGGSLRLSCAASGITFYLYAMGWYRQAPGKERELVAAISRGGSTNYADSVKGRFTISRDNAKNTVYLQMNSLKPEDTAVYYCAAVDRYGFGYWGQGTQVTVSS | high polyreactivity
35 | QVQLVESGGGLVQAGGSLRLSCAASGITFYPYAMGWYRQAPGKERELVAAISWRSGSTNYADSVKGRFTISRDNAKNTVYLQMNSLKPEDTAVYYCNFDKVTSWYYYGYWGQGTQVTVSS | low polyreactivity
36 | QVQLVESGGGLVQAGGSLRLSCAASGITFYQYAMGWYRQAPGKERELVAGINSGGSTNYADSVKGRFTISRDNAKNTVYLQMNSLKPEDTAVYYCAAPWGWARRYRVYGGYYWGQGTQVTVSS | high polyreactivity
37 | QVQLVESGGGLVQAGGSLRLSCAASGITFYRKAMGWYRPAPGKEREFVAAINYGGSSTRYADSVKGRFTISRDYAKNTVYLQMNSLKPEDTAVYYCAVEKRYPRRRYDYWGQGTQVTVSS | low polyreactivity
38 | QVQLVESGGGLVQAGGSLRLSCAASGITFYRNAMGWDRQAPGKERELVAAISSRGGRTYYADSVKGRFTISRDNAKNTVYVQMNSLKPEDTAVYYCAKGGKVGSTLEYDYWGQGTQVTVST | high polyreactivity
39 | QVQLVESGGGLVQAGGSLRLSCAASGITFYRNAMGWYRQAPGKERELVAAISRRGGITRYADSVKGRFTISRDNAKNTVYLQMNSLKPEDTAVYYCAVAVNGVSRIKYYYWGQGTQVTVSS | high polyreactivity
40 | QVQLVESGGGLVQAGGSLRLSCAASGITFYRYALGWYRQAPGKERELVAAISSSGGSTYYADSVKGRFTISRDNAKNTVYLQMNSLKPEDTAVYYCATDSLYDYWGQGTQVTVSS | high polyreactivity
41 | QVQLVESGGGLVQAGGSLRLSCAASGITFYRYGMGWYRQAPGKARELVAAITYNGGGTYYADSVKGRFTISRDNAKNTVYLQMNSLKPEDTAVYYCNARYYRKYDYWGQGTQVTVSS | high polyreactivity
42 | QVQLVESGGGLVQAGGSLRLSCAASGITFYRYGMGWYRQAPGKERELVAAITSRGGSTSYADSVKGRFTISRDNAKNTVYLQMNSLKPEDTAVYYCAAFYRRDYDYWGQGTQVTVSS | high polyreactivity
43 | QVQLVESGGGLVQAGGSLRLSCAASGITFYRYTMGWYRQAPGKERELVAAIRSGGSTYYADSVKGRFTISRDNAKNTVYLQMNSLKPEDTAVYYCAAPYYRYNVPYYGGNGGDYWGQGTQVTVSS | high polyreactivity
